Values of other authors in patent US10765706B2, “Method of stem cell delivery into the brain during chronic disease using blood brain barrier permeabilizers” (University of South Florida, priority 2015, dated 2020).

Test system: stroke patients
Conditions: acute stroke patients

B1: t-PA: thrombolytic agent, tissue plasminogen activator (protein, UniProt P00750 36-562, looked up)
Tissue-type plasminogen …: SYQVICRDEKTQMIYQQHQSWLRPVLRSNRVEYCWCNSGRAQCHSVPVKSCSEPRCFNGGTCQQALYFSDFVCQCPEGFAGKCCEIDTRATCYEDQGISYRGTWSTAESGAECTNWNSSALAQKPYSGRRPDAIRLGLGNHNYCRNPDRDSKPWCYVFKAGKYSSEFCSTPACSEGNSDCYFGNGSAYRGTHSLTESGASCLPWNSMILIGKVYTAQNPSAQALGLGKHNYCRNPDGDAKPWCHVLKNRRLTWEYCDVPSCSTCGLRQYSQPQFRIKGGLFADIASHPWQAAIFAKHRRSPGERFLCGGILISSCWILSAAHCFQERFPPHHLTVILGRTYRVVPGEEEQKFEVEKYIVHKEFDDDTYDNDIALLQLKSDSSRCAQESSVVRTVCLPPADLQLPDWTECELSGYGKHEALSPFYSERLKEAHVRLYPSSRCTSQHLLNRTVTDNMLCAGDTRSGGPQANLHDACQGDSGGPLVCLNDGRMTLVGIISWGLGCGQKDVPGVYTKVTNYLDWIRDNMRP
fraction of patients receiving the therapy with enhanced recovery: ⅓
